Measurements reported in the supplement of paper PMC9112550, “Optimization of the antimicrobial peptide Bac7 by deep mutational scanning” (BMC Biology, 2022).

Test system: Escherichia coli TOP10
Assay: shrunken log2 fold change of peptide-encoding DNA abundance (4.5 h post-induction vs induction); higher = less antimicrobial activity (less host growth inhibition)
Settings: time post-induction: 4.5 h; library: site-saturation at positions 5, 18, 19, 20
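Note: peptides expressed intracellularly from a pBAD plasmid library in pooled LB shake-flask culture, induced with 0.3% L-arabinose, DNA abundance read by NGS, three biological replicates, DESeq2 with apeglm shrinkage.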

Row | Sequence | shrunken log2 fold change
1 | RRIRVRPPRLPRPRPRPNTCPRP | -0.101
2 | RRIRVRPPRLPRPRPRPNTPPRP | -0.0576
3 | RRIRVRPPRLPRPRPRPNTSPRP | -0.391
4 | RRIRVRPPRLPRPRPRPNVSPRP | -0.0331
5 | RRIRVRPPRLPRPRPRPNWGPRP | 0.119
6 | RRIRVRPPRLPRPRPRPNWKPRP | -0.0426
7 | RRIRVRPPRLPRPRPRPNWMPRP | -0.235
8 | RRIRVRPPRLPRPRPRPPAPPRP | 0.794
9 | RRIRVRPPRLPRPRPRPPCAPRP | 0.238
10 | RRIRVRPPRLPRPRPRPPCGPRP | 0.297
11 | RRIRVRPPRLPRPRPRPPCKPRP | 0.106
12 | RRIRVRPPRLPRPRPRPPCLPRP | -0.108
13 | RRIRVRPPRLPRPRPRPPCQPRP | 0.0844
14 | RRIRVRPPRLPRPRPRPPCRPRP | 2.01
15 | RRIRVRPPRLPRPRPRPPFEPRP | 0.26
16 | RRIRVRPPRLPRPRPRPPFMPRP | 1.97
17 | RRIRVRPPRLPRPRPRPPGFPRP | 0.842
18 | RRIRVRPPRLPRPRPRPPNEPRP | 0.345
19 | RRIRVRPPRLPRPRPRPPQSPRP | 0.249
20 | RRIRVRPPRLPRPRPRPPRFPRP | 0.577
21 | RRIRVRPPRLPRPRPRPPRRPRP | 0.491
22 | RRIRVRPPRLPRPRPRPPSAPRP | 0.47
23 | RRIRVRPPRLPRPRPRPPSWPRP | 0.34
24 | RRIRVRPPRLPRPRPRPPVLPRP | -0.201
25 | RRIRVRPPRLPRPRPRPPWCPRP | 0.497

Row | Sequence | shrunken log2 fold change
26 | RRIRVRPPRLPRPRPRPPWFPRP | 0.0493
27 | RRIRVRPPRLPRPRPRPPWHPRP | 0.164
28 | RRIRVRPPRLPRPRPRPPYHPRP | -0.284
29 | RRIRVRPPRLPRPRPRPPYTPRP | -0.268
30 | RRIRVRPPRLPRPRPRPQANPRP | 0.0748
31 | RRIRVRPPRLPRPRPRPQAPPRP | 0.167
32 | RRIRVRPPRLPRPRPRPQCHPRP | -0.0451
33 | RRIRVRPPRLPRPRPRPQCWPRP | 0.198
34 | RRIRVRPPRLPRPRPRPQDPPRP | 0.0381
35 | RRIRVRPPRLPRPRPRPQEFPRP | -0.06
36 | RRIRVRPPRLPRPRPRPQELPRP | -0.0343
37 | RRIRVRPPRLPRPRPRPQGAPRP | 0.168
38 | RRIRVRPPRLPRPRPRPQHYPRP | -0.718
39 | RRIRVRPPRLPRPRPRPQKAPRP | -0.0576
40 | RRIRVRPPRLPRPRPRPQKDPRP | -0.187
41 | RRIRVRPPRLPRPRPRPQKFPRP | -0.278
42 | RRIRVRPPRLPRPRPRPQKGPRP | -0.036
43 | RRIRVRPPRLPRPRPRPQKKPRP | -0.117
44 | RRIRVRPPRLPRPRPRPQMRPRP | 0.458
45 | RRIRVRPPRLPRPRPRPQNDPRP | -0.292
46 | RRIRVRPPRLPRPRPRPQNHPRP | -0.608
47 | RRIRVRPPRLPRPRPRPQPYPRP | -0.486
48 | RRIRVRPPRLPRPRPRPQRMPRP | 0.0511
49 | RRIRVRPPRLPRPRPRPQSLPRP | 0.0116
50 | RRIRVRPPRLPRPRPRPQTEPRP | -0.134

Row | Sequence | shrunken log2 fold change
51 | RRIRVRPPRLPRPRPRPQTFPRP | -0.122
52 | RRIRVRPPRLPRPRPRPQTYPRP | -0.647
53 | RRIRVRPPRLPRPRPRPQVMPRP | -0.112
54 | RRIRVRPPRLPRPRPRPQWYPRP | -0.327
55 | RRIRVRPPRLPRPRPRPQYNPRP | -0.851
56 | RRIRVRPPRLPRPRPRPRARPRP | 0.737
57 | RRIRVRPPRLPRPRPRPRCAPRP | 0.517
58 | RRIRVRPPRLPRPRPRPRDAPRP | 0.422
59 | RRIRVRPPRLPRPRPRPRDVPRP | -0.113
60 | RRIRVRPPRLPRPRPRPRFFPRP | 0.287
61 | RRIRVRPPRLPRPRPRPRFGPRP | 0.249
62 | RRIRVRPPRLPRPRPRPRGAPRP | 0.567
63 | RRIRVRPPRLPRPRPRPRGFPRP | 0.26
64 | RRIRVRPPRLPRPRPRPRHVPRP | 0.0785
65 | RRIRVRPPRLPRPRPRPRHWPRP | 0.293
66 | RRIRVRPPRLPRPRPRPRIRPRP | -0.202
67 | RRIRVRPPRLPRPRPRPRKGPRP | 0.328
68 | RRIRVRPPRLPRPRPRPRMDPRP | -0.371
69 | RRIRVRPPRLPRPRPRPRNTPRP | -0.365
70 | RRIRVRPPRLPRPRPRPRPWPRP | 0.178
71 | RRIRVRPPRLPRPRPRPRRMPRP | 0.422
72 | RRIRVRPPRLPRPRPRPRRPPRP | 0.34
73 | RRIRVRPPRLPRPRPRPRRTPRP | 0.115
74 | RRIRVRPPRLPRPRPRPRTPPRP | 0.555
75 | RRIRVRPPRLPRPRPRPRVHPRP | 1.62

Row | Sequence | shrunken log2 fold change
76 | RRIRVRPPRLPRPRPRPRWNPRP | 0.132
77 | RRIRVRPPRLPRPRPRPRYMPRP | -0.528
78 | RRIRVRPPRLPRPRPRPRYPPRP | -0.294
79 | RRIRVRPPRLPRPRPRPSAAPRP | 0.298
80 | RRIRVRPPRLPRPRPRPSAIPRP | -0.258
81 | RRIRVRPPRLPRPRPRPSCWPRP | 0.178
82 | RRIRVRPPRLPRPRPRPSECPRP | 0.0274
83 | RRIRVRPPRLPRPRPRPSFDPRP | -0.269
84 | RRIRVRPPRLPRPRPRPSFHPRP | -0.439
85 | RRIRVRPPRLPRPRPRPSGRPRP | 0.0291
86 | RRIRVRPPRLPRPRPRPSHRPRP | -0.615
87 | RRIRVRPPRLPRPRPRPSIGPRP | -0.197
88 | RRIRVRPPRLPRPRPRPSLCPRP | -0.233
89 | RRIRVRPPRLPRPRPRPSLGPRP | 0.0433
90 | RRIRVRPPRLPRPRPRPSLHPRP | -0.415
91 | RRIRVRPPRLPRPRPRPSMWPRP | -0.104
92 | RRIRVRPPRLPRPRPRPSPAPRP | 0.34
93 | RRIRVRPPRLPRPRPRPSPHPRP | -0.571
94 | RRIRVRPPRLPRPRPRPSPQPRP | 0.0525
95 | RRIRVRPPRLPRPRPRPSRQPRP | -0.0237
96 | RRIRVRPPRLPRPRPRPSSCPRP | -0.184
97 | RRIRVRPPRLPRPRPRPSTEPRP | -0.331
98 | RRIRVRPPRLPRPRPRPSVNPRP | -0.291
99 | RRIRVRPPRLPRPRPRPSWFPRP | -0.262
100 | RRIRVRPPRLPRPRPRPSWMPRP | -0.139

Row | Sequence | shrunken log2 fold change
101 | RRIRVRPPRLPRPRPRPSYSPRP | -0.376
102 | RRIRVRPPRLPRPRPRPTDPPRP | 0.328
103 | RRIRVRPPRLPRPRPRPTDYPRP | -0.479
104 | RRIRVRPPRLPRPRPRPTECPRP | 0.00778
105 | RRIRVRPPRLPRPRPRPTFEPRP | -0.106
106 | RRIRVRPPRLPRPRPRPTFGPRP | 0.215
107 | RRIRVRPPRLPRPRPRPTGCPRP | 0.0918
108 | RRIRVRPPRLPRPRPRPTHDPRP | 0.143
109 | RRIRVRPPRLPRPRPRPTIAPRP | 0.335
110 | RRIRVRPPRLPRPRPRPTIFPRP | -0.469
111 | RRIRVRPPRLPRPRPRPTKDPRP | -0.303
112 | RRIRVRPPRLPRPRPRPTKRPRP | 0.331
113 | RRIRVRPPRLPRPRPRPTKVPRP | -0.341
114 | RRIRVRPPRLPRPRPRPTLPPRP | 0.335
115 | RRIRVRPPRLPRPRPRPTLWPRP | 0.259
116 | RRIRVRPPRLPRPRPRPTMGPRP | 0.04
117 | RRIRVRPPRLPRPRPRPTMLPRP | -0.205
118 | RRIRVRPPRLPRPRPRPTPDPRP | 0.182
119 | RRIRVRPPRLPRPRPRPTRQPRP | 0.0865
120 | RRIRVRPPRLPRPRPRPTRYPRP | -0.0106
121 | RRIRVRPPRLPRPRPRPTSKPRP | -0.144
122 | RRIRVRPPRLPRPRPRPTTEPRP | 0.14
123 | RRIRVRPPRLPRPRPRPTVCPRP | 0.518
124 | RRIRVRPPRLPRPRPRPTVGPRP | 0.553
125 | RRIRVRPPRLPRPRPRPTVMPRP | 0.126

Row | Sequence | shrunken log2 fold change
126 | RRIRVRPPRLPRPRPRPTVTPRP | 0.167
127 | RRIRVRPPRLPRPRPRPTWRPRP | 0.686
128 | RRIRVRPPRLPRPRPRPTYEPRP | -0.152
129 | RRIRVRPPRLPRPRPRPTYGPRP | -0.838
130 | RRIRVRPPRLPRPRPRPVACPRP | 0.167
131 | RRIRVRPPRLPRPRPRPVAHPRP | 0.0271
132 | RRIRVRPPRLPRPRPRPVCPPRP | 0.0825
133 | RRIRVRPPRLPRPRPRPVCYPRP | 0.0382
134 | RRIRVRPPRLPRPRPRPVDCPRP | 0.014
135 | RRIRVRPPRLPRPRPRPVDGPRP | 0.021
136 | RRIRVRPPRLPRPRPRPVFFPRP | -0.0099
137 | RRIRVRPPRLPRPRPRPVFGPRP | -0.0383
138 | RRIRVRPPRLPRPRPRPVHSPRP | 0.0275
139 | RRIRVRPPRLPRPRPRPVIFPRP | -0.0885
140 | RRIRVRPPRLPRPRPRPVIGPRP | 0.183
141 | RRIRVRPPRLPRPRPRPVIIPRP | -0.182
142 | RRIRVRPPRLPRPRPRPVINPRP | -0.712
143 | RRIRVRPPRLPRPRPRPVITPRP | -0.207
144 | RRIRVRPPRLPRPRPRPVKLPRP | -0.407
145 | RRIRVRPPRLPRPRPRPVKWPRP | -0.0595
146 | RRIRVRPPRLPRPRPRPVLEPRP | -0.0482
147 | RRIRVRPPRLPRPRPRPVLTPRP | 0.146
148 | RRIRVRPPRLPRPRPRPVMDPRP | -0.324
149 | RRIRVRPPRLPRPRPRPVMQPRP | -0.0429
150 | RRIRVRPPRLPRPRPRPVPCPRP | -0.162
